Results: article PMC13316013, “Shared structural mechanisms of alternating access between the secondary peptide transporter SbmA and ABC transporters” (Nature Communications, 2026)
Values belong to the binder of their own block, whether it stands above or below them.

Columns and labels:
SbmA [1] = target: T1, SbmA (Escherichia coli, UniProt P0AFY6); assay: cryo-EM structure; SbmA incubated with SB2 in a 1:2 molar ratio, 30 min, 4 °C; complex purified by SEC in TBS pH 7.4, 0.05% DDM; 200 kV (Table 1 names lipid nanodiscs for identifier D); conditions: both partners purified
T1 construct: SbmA, inner membrane peptide transporter of Escherichia coli, cloned from genomic DNA into pBXC3H; Homodimer; no cleavage is described; also called SbmA-like peptide transporter (SLiPT) family member; source: E. coli MC1061, purified (Nickel Sepharose, SEC) in DDM; for some samples reconstituted into MSP1E3D1 lipid nanodiscs

SbmA [2] = target: T1, SbmA; assay: as above; conditions: both partners purified; remark: listed apart in the source
SbmA [3] = target: T1, SbmA; assay: cryo-EM structure; SbmA in complex with Fab S11-1 in lipid nanodiscs (MSP1E3D1; DOPC:POPG:POPO-cardiolipin 13:4:1), SEC in 20 mM MES pH 5.5, 300 KCl; 300 kV; conditions: both partners purified
[4] = target: the molecule itself; assay: as above

stoichiometry N (SbmA [1]): 1 sybody per SbmA dimer | stoichiometry N (SbmA [2]): 2 Sb per SbmA dimer
B1: Sybody2 (VHH)
VHH: QVQLVESGGGLVQAGGSLRLSCAASGFPVIANVMYWYRQAPGKEREWVAAIDSSGEYAYYADSVKGRFTISRDNAKNTVYLQMNSLKPEDTAVYYCYVKVGSHYWGQGTQVTVSA
notes: synthetic nanobody (sybody, 16 kDa) selected against biotinylated SbmA T403C; also called SB2; Sb2

stoichiometry N (SbmA [3]): 1 Fab per SbmA dimer
B2: Fab fragment Fab S11-1 (Fab, V domains shown)
VH: LKLLDSGAELVKPGASVKLSCTASGFNIKDTYMYWVKQRPDQGLEWIGRIDPANGNSKYDPKFQGKATITADTSSNTAYLQVSSLTSEDTAVYYCARWLVRGRRGTMDYWGQGTSVTVSS
VL: DIVMTQSPAILSASPGEKVTMTCRASSSVSYMHWYQQKPGSSPKPWIYATSNLASGVPARFSGSGSGTSYSLTISRVEAEDAATYYCQQWSSNPRTFGGGTKLEIK

B3: SbmA (natural protein, Escherichia coli)
chain: MFKSFFPKPGTFFLSAFVWALIAVIFWQAGGGDWVARITGASGQIPISAARFWSLDFLIFYAYYIVCVGLFALFWFIYSPHRWQYWSILGTALIIFVTWFLVEVGVAVNAWYAPFYDLIQTALSSPHKVTIEQFYREVGVFLGIALIAVVISVLNNFFVSHYVFRWRTAMNEYYMANWQQLRHIEGAAQRVQEDTMRFASTLENMGVSFINAIMTLIAFLPVLVTLSAHVPELPIIGHIPYGLVIAAIVWSLMGTGLLAVVGIKLPGLEFKNQRVEAAYRKELVYGEDDATRATPPTVRELFSAVRKNYFRLYFHYMYFNIARILYLQVDNVFGLFLLFPSIVAGTITLGLMTQITNVFGQVRGAFQYLINSWTTLVELMSIYKRLRSFEHELDGDKIQEVTHTLS
notes: SbmA, inner membrane peptide transporter of Escherichia coli, cloned from genomic DNA into pBXC3H; Homodimer; no cleavage is described; also called SbmA-like peptide transporter (SLiPT) family member; source: E. coli MC1061, purified (Nickel Sepharose, SEC) in DDM; for some samples reconstituted into MSP1E3D1 lipid nanodiscs
stoichiometry N [4]: 2
